This passage reports protein production results from a protein production outcome set (Wang et al. 2014).

The data set is described as follows: label from the status in PepcDB records.
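Note: failed if final PepcDB status was selected cloned or expressed and not failed if soluble or beyond.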

For “MRGTAAIEGPGSQSMITRRGFLRFIGGSFLTAAALGAYAVGIEPMLLTHVKRYALTPPHWPDGLKLRVVALADIHACRPWMTQERIASLVEDANALQPDLIVLLGDYIAGMPLVTGPVTPSQWASALSGLKAPLGVLSILGNHDWWSDGFAQRAGAGPIIARKALEKVGIPVLENDVVRLEKDGQSVWIAGLADQLALLPARKGDDCKGLDDLDGTLAKVGDTAPIILLAHEPDIFPTVPSRVSLTLSGHTHGGQVRLFGYSPVVPSRFGNRYAYGHVVEKDRNLIVSGGLGFSIMPVRFGVRPEILQIDLG”, the protein production result was “failed”.
On to “MRGWILYKETATQLKPEWYEIERLLAAAKADNIELEVYAPDEFDLTVTREDNKSILLNGQPVELPDFIIPRMGSGTTYFALAIIRHLERLGVYCLNPSKAIEIVKDKLFSQQLLAEKNLPTPKTMLVKFPVDIDLVERHLGFPVVIKTLSGSQGSGVFLSHKAREFDDLMQLIEATNKNANIILQEFIANSHGRDLRVFTIGGRVAGCYERRGQEDSFKANVSAGGSARPFDITPEIEWLATQTANILDLDVAGIDLLFDNGHYKICEANSSPGFEGLESCLNVDIAAQILHFIRIRLGMFNKDEKNSDPQLTHAGPALANNVTSSKAAE”, for which the protein production entry is recorded as “failed”.
The result for “MRGWTAVTDTAGTPSGDGPEQAAVPGPGGGASPIGAGLVRRRRRWLRHTAFGVAALVLGAAGAGWAVYEKLNSNITADEAAAAELARYEKERPTSLVRDAQNILLIGSDSRSGDGNSQYGRDTGTERSDTTILLHLPANRHSATAVSLPRDLMVDIPSCRRPDGTRTAPTFAMFNQAFETGGSACTIRTAEKLTNVRIDHHMVVDFSGFKEMVDAVDGVEVCLKDPIDDKDAKLRLPAGKQLLDGEQALGYVRARKSIGNGSDTDRMDRQQRFLGALVNKVQGNDVLLNPVKLYPVLDAATSSLTTDPDLASLRGLYELVRGMRNIPPERVQFLTVPRTSYVNNANRDQLVEPDAEKLFARLRADAPLEVAKDYAGYDEQSGGDGTLSGKPLDTPAGTPDPTPTFRGNTAAEDGCE” reads “failed”; that for “MRHDDARGRPGTRIAWRATFAAKRGEALRADHLRYRPQAGSPGALHCFVLDCSASMLTAERLARAKGLVVALFDSLARERADAALVCFGGNSAGVRFGPAVPRWWNERWLAPVGAGGGTPLARGIGAATRLLARAARRRPRQQRWLWLLSDGRTTEAPARPAFADRIVIVDFDDAAVRLGRCERLAHAWGAALVTPQALERGGG”, “failed”; that for “MRHITTHDAPATGLRSIADTSWHVRGACHGMDIEDADAVFFPGPRDHEEIAEAKELCGWCPVRRACLDFALENVLKEGVWGGLTEAERRPL”, “failed”.
The result for “MRIDTQEQLVTLLNALFEKVGINLEQVSKLDNYGVMFSVPGTMKPLIATLKTVTTPTNWNNETNLGHYKSADENWLLCLKPAPHSVFCIATVCSLHEKHLEQYIETSEKKQDRRIAAEHGDPEAQYYTAQDCEDKTEALFWYRKAGEQNHYWALYQIALMYEAGEGGLEKDFAQAILWRGKAAEQGSDAAARDLAEMYEEGTADIPQDLTLAIFWYERWLELSPVMRRMIKPKIKSLKAALSQRMNE” reads “failed”; that for “MRIEAAELRILELPLKFRFETSFGVQTKRTILLLRLFGEGLEGLGEGVMERLPLYREETVAGARYLLEEVFLPRVLGRDLPNPEALREALAPFRGNPMAKAVLEMAFFDLWAKALGRPLWQVLGGVRQAVEVGVSLGIQPSVEDTLRVVERHLEEGYRRIKLKIKPGWDYEVLKAVREAFPEATLTADANSAYSLANLAQLKRLDELRLDYIEQPLAYDDLLDHAKLQRELSTPICLDESLTGAEKARKAIELGAGRVFNVKPARLGGHGESLRVHALAESAGIPLWMGGMLEAGVGRAHNLHLATLPGFTKPGDVSSASRYWEEDIVEEALEAKDGLMPVPEGVGIGVHLKLPFVERVTLWQRYMSAS”, “not failed”.
With “MRIEVVNVSHIFHRGTPLEKKALENVSLVINEGECLLVAGNTGSGKSTLLQIVAGLIEPTSGDVLYDGERKKGYEIRRNIGIAFQYPEDQFFAERVFDEVAFAVKNFYPDRDPVPLVKKAMEFVGLDFDSFKDRVPFFLSGGEKRRVAIASVIVHEPDILILDEPLVGLDREGKTDLLRIVEKWKTLGKTVILISHDIETVINHVDRVVVLEKGKKVFDGTRMEFLEKYDPRFFTSKMLVMRRLVLKGEDPFSMSDDELLERVCNS” the entry was “not failed”; with “MRIFIAFEGSFEAFDVAAHTSVGAIKQMVKDYFHIPLSEDKQGRWYLELTYAGAALKNNWSLSDVGISFCSTLKCFVKKEDKPTLYVFNAVTQETMAIKENMSILDRKVSDLRMLVTLSCGFPVSVYCLRTPAGLEMYDCNTLKDYQTDIGTTLRLDVWDGWKEFLMGCLLGQKPKVQRYLSKEGPVLKYQKRVALYIAAFHGHTELTEWALKQGAQPHEAVGVHPCRAWCHEALHTDVSNCPIHAAAEAGQLLILKAFVNFSVLCLECKNAAGQSPLAIASKHQHKDCVLYLLSKIWSTVSFLKLSVPMRIYIKIKQWILRAQTRRCHKSQPSRARVSGAKVGDTVMVDGFTKPKMTSKSWYKAEDKSWHTAQSKLPPCKQQPSRKPIGSLPMSQHDTKKQIFTFPSLVDAKNFSEVQSYQQENQKKIAAPARKEKNIKNPYLPQVPLPPVSRVHYAHPQFYCTPPSGDCLLRSLFKSFSEHSGRTPRENAIYCLAVASAFKEKRWLQQLEIARVLAKRSISNLTVKGGPAKCENYPESVL”, “failed”.
Regarding “MRIGMRLLLGYFLLVAVAAWFVLAIFVKEVKPGVRRATEGTLIDTATLLAELARPDLLSGDPTHGQLAQAFNQLQHRPFRANIGGINKVRNEYHVYMTDAHGKVLFDSANKAVGQDYSRWNDVWLTLRGQYGARSTLQNPADPESSVMYVAAPIMGGSRLIGVLSVGKPNAAMAPVIKRSERRILWASAILLGIALVIGAGMVWWINRSIARLTRYADSVTDNKPVPLPDLGSSELRKLAQALESMRVKLEGKNYIEQYVYALTHELKSPLAAIRGAAEILREGPPPEVVARFTDNILTQNARMQALVETLLRQARLENRQEVVLTAVDVAALFRRVSEARTVQLAEKNITLHVMPTEVNVAAEPALLDQALGNLLDNAIDFTPESGCITLSAEVDQEHVTLKVLDTGSGIPDYALSRIFERFYSLPRANGQKSSGLGLAFVSEVARLFNGEVTLRNVQEGGVLASLRLHRHFT”, the protein production entry is given as “failed”.
With “MRIHDIDPDNRPRERFLRSGKESLSPAELLALILRSGTAGLNIIDTCNKLISEHGLERLADLSIQELQKTPGIGEAKAMQIAAIFELQRRLHFARNMNLKVKGARDVFEYMKGRIPDETKEHLFVLFLSTKNQILRHETITIGTLTASLIHPREIFKAAIRESAHSIILVHNHPSGDVQPSNADKQVTSILKKAGDLLQIELLDHVIVGNNDWFSFRDHALL”, the protein production entry is given as “failed”.
Turning to “MRIIKFPEQISEDIIHYTFLDDIISYNCEKCRGSCCHVNNSLLLDAKTASFLKRTYLKDFIVSDDSVSLLSCGKKCWFHSELGCTINDLGLNKPLTCELYPFHIKKIQNFYIVSFTPCPTFQLNLGEGQRYKDIEDVVLRYIKTGVPVFSPSLHVSEERLKYEIEYQNNFKNTLSEYYRTKTADGTTEFKEYEKWYIYYLDFRWGSIPLSYTSSQANQFWNLYKRVCEDVYKKISYIRTDNIYFIIANQFNKTISKHFQLNFIDKELEHHHHHH”, the protein production entry is “not failed”.
As for “MRIKNKCLVLLIPLGISIMFDIRVKAFQPVSHYVVIEQAESKMSNDSIIRKAIEAYPNVAAWGSVGPDLGYMQVGELGDYSPWGDRYHYYKVGTYAAKQLKNALETRDMKKIAFAAGWISHVTGDLACHGIYVNPECGVYLDNKDGRKQHKHMEAEAEPYAWVNIAGHSINDYNSNNMSNNVFKGTDDIPFDLMNETSKEVYGQSPSTAEEKLWASTLLTGLRTGVGYSYTDYNESKQFLSINSREQRLNASFSQGINQCYKLLTYSENGDYSKFTDRWNLDVGKSSSPISSLTTIISTGTNLGSGTDDDIYFGIHLNNGQKKEWLLDKETYNDFENGATDEYYLYINDMDFLPTMVDKVWVRKNSTGSFAGNWFFKALRIDANGNDVLSVSPNEWITDSNSQAEFNSDWSSVTNLTDPEF”, the protein production entry is “failed”.
The result for “MRILLVEDDELIGELLVKSLTSQHYTVDFAKDGQEGWDFAELYTYDLILLDLILPKLDGISFCRQLRASGNQTPILLLTSQDTSITKVTGLDAGADDYVAKPFDFQELLARIRALLRRGGSALPPLLEWNNLRLDPSTCEVACDGKLLHLTPKEYGLLELFLRNSHRIFSCSALIDQLWSFEEPPTEDTVRSHIKGLRQKLKAAGVVEDPIDTVYGIGYRLKPVQPGREEELNTEKVVAAIANPVENEVRKVWEDVVEKIEQRVAVIEQASHKLLQNKVSEEILSKAKVEAHKLAGSLGMFGSDEGSQIAQEIESLLDNGKKLKASGGKHLGQVVEALHQELENLKSGYKTELSVVETKADDRPLVLVIDQDQELVRESRSQGSEAIAPGQLTDARVMIVDDDPQILTTLQTLLSAWGIKVYTLPHPQGFLAARLGNLAEIDTLTLVANRRKSTQELNHYLQWCHTHQQTLSFAVVKLDGLKQINYNYGHEIGDRVLSQLGELLRQMFHSQDVVGRWGGTEFILGMAGITKGEGVRRLGELLKTFRQIEFINTSNQSFHATLSAAVVEYPQDGDKLEVLYQAADIVLHQSKATGRNRVLSS” reads “failed”; that for “MRILSIHLKNIKSHRDTELTFSAGINVLSGPNGVGKSTVFEAIGYALFGVDARDFVSNVDRFLSIGTKKGEIAVAFCTDAGETWRVTRTVGTPAKWLLAREQGGAFEVEEHARIEETEARIAELLGLDNGRPLAEQFKLVIGPFQNEFLGPFVIKQPTKRQEAFDEILGIDAWRKTYKSTSSLLSAVQEKIKIIAVEIEAKEAQVAVLPEREDELAKIKTDAEALRKVLSSQADALRDVEKQLVELDDQEKGIAALQAEIQILVNRITDGEGKIKDQGQRVGEAEKAGGVLEQTRAGKEAFERAESRLAELVSKDKQRREVEKDVTRLENETQRLTQAVEHEQKEIEGEGRRLREEEDALAKARNELEPDRKVVDTAGRLPGLRDEINRVRSEKGLLEGRRIGLLEGQEKLGEGTCPFFKEPCRNVAGTTPKDVFTTRIAELDRKMQALTEALGKLSVEVADAEAAEKQLAALTVRSQELHKQTMGLVERRARNEKRVATLQTLSTQQIEAATRAKARRDDLQVFAGLDHEIERATAERGRFQADRDAYHAHEKDALDLDNRRQTLEKMLRLLDELQKQLIGKKEELIRLQETYKPGQHKEARDQKDRLVAQVASLGQQIENLEKDRKRLEDEIGKLKLLKDEIGRKQAERNSFEQKEKLVKFLRNQVFKNVSAQLSERFREEISLRADRIYRTIAEADEELVWSENYQIVLRDMTDGVVRERSDDQLSGGQTMSAVVALRLALLQTIGARIAFFDEPTSNLDASRRENLATAFRAIDVGREEVTEHWYDQLFLISHDVAFTEITDQMIQLGE”, “failed”; that for “MRIQMATKSSKKYKGVYCDNKGKIFYQIDLGIDPVTGKRVQKKARKNQYGKTFETMKEAYDELVRIKYEFANKVHLENYNMTFENYMNTIYLRAYKQKVQSVTYKTALPHHKLFIQYFGSKPLKAITPRDCEAFRLHIIENYSENYAKNLWSRFKACMGYAERLGYISDMPCKALDNPRGKHPETPFWTYAEFQTFIKSFDLHDYEELQRFTAIWLYYMTGVRVSEGLSLCWEDIDFDKKFLKVHTTLEKDENGNWYRKDQTKTPAGERLIELDDITIEVLQVWRKNQFANQDTDFIISRFGDPFCKSTICRIIKRKAQQVGVPVITGKGLRHSHASYLINVLKKDILYVARRMGHADKSTTLNTYSHWFNALDKTVSEEITQNIKSAGLDSILCQNSCQTSN”, “failed”.
The result for “MRIRLFAFCLLLGGCQSQLPPLPDWQSPEGRDDPQTGRIVELRSGVTLSPQQLVARLAAAPRVIVGEKHDNPDHHAVELWLAQALGEYRAQGSLLLEMLDPGQQPRVDAVRAQLGNGKPVANLEEALDWQKGWDWTQYGPLVSWAVAQPAPLLAANLQRSEIMRIYRERPPLPGTASRRDSVRLPLLAQIRESHCGMLPDDQLPAMLAVQQQRDRRMAERLRDAPRPAMLVAGSFHARRDLGVPVHLRDLGAEKGTQVLMLVEAGQAVTTREADYAWYTPAQPDKDYCAEMKKARLEHHHHHH” reads “failed”.
